Laboratory results reported in patent US20120047600A1, “CAFFEOYL COA REDUCTASE” (priority 2010, published 2012).
Blank lines part the entries; values can stand above or below the molecule they belong to.

Experiments:
Format in all cases: biochemical, M. truncatula
Medicago CCR2 = Medicago CCR2 (Medicago truncatula, UniProt G7JEE5); assay: CCR enzyme activity assay with purified recombinant Medicago CCR2 expressed in E. coli; details: for CCR2 activity at higher substrate concentrations: substrate inhibition, FIG. 5C,D
Description: (§1) To assess the potential of Medicago CCRs to produce caffeoyl aldehyde, CCR1 and CCR2 were expressed in E. coli and assayed the purified recombinant enzymes with varying concentrations of each of the four potential substrates, 4-coumaroyl-, caffeoyl-, feruloyl- and sinapoyl-CoAs. Briefly, the coding regions of CCR1 and CCR2 were amplified from the original cDNA clones with introduction of NheI enzyme sites before the ATG start codons, a BamHI site after the CCR1 stop codon, and an XhoI site after the CCR2 stop codon. The primers EpCCR1F and EpCCR1R (see Table 3 below) were used for amplification of CCR1, and EpCCR2F and EpCCR2R were used for amplification of CCR2. The PCR products were cloned into T-vector (Promega). After confirmation by sequencing, both CCR sequences were subcloned into pET28a vector (Novagen) and the resulting constructs introduced into E. coli strain BL21 ([…]) (Novagen). The clones with correct inserts were grown at 37° C. until OD600 reached about 0.6, IPTG was added to a final concentration at 0.25 mM, and culture continued at 16° C. overnight. Induced E. coli cells were harvested by centrifugation at 5,000 g for 10 min, frozen in liquid nitrogen and stored at −80° C.
(§2) All enzyme purification steps were carried out at 4° C. The harvested cells were suspended in extraction buffer (100 mM Hepes-NaOH, pH 7.5, 500 mM NaCl, 10 mM imidazole, 10% glycerol, 10 mM mercaptoethanol, 1 mM EDTA, and 1 mM PMSF), sonicated three times for 20 s and centrifuged at 16,000 g for 10 min. The supernatants were mixed with Ni-NTA His-bind resin (Promega). After washing three times in extraction buffer without PMSF, the recombinant proteins were eluted with elution buffer (100 mM Hepes-NaOH, 10% glycerol, 1 mM EDTA, 10 mM mercaptoethanol, and 500 mM imidazole) and the protein stored at −80 ° C. until assay.
(§3) For CCR enzyme activity assays purified CCR protein (2.5 μg) was mixed with assay buffer (100 mM phosphate pH 6.25, 10 mM 2-mercaptoethanol, 0.2 mM NADPH and cinnamoyl CoA substrates at the indicated concentration) in a final volume of 500 μl. The reaction was carried out at 30° C. for 5 min and then terminated with the addition of 70 μL 24% trichloroacetic acid. The reaction mixture was extracted with ethyl acetate (0.6 ml×3) and the combined organic phases dried under a stream of N2. […] Compounds were identified by comparing their UV spectra and retention times with authentic standards of hydroxycinnamoyl aldehydes, and quantified by means of standard curves with correction for recovery of internal standards. Protein concentrations were determined using Bradford reagent (Bio-Rad). For kinetic analysis at various substrate concentrations, enzyme velocity curves were analyzed using Sigmaplot 10 software (Systat Software Inc.).

Medicago CCR1 = Medicago CCR1 (Medicago truncatula, UniProt A0A072VDF2); assay: CCR enzyme activity assay with purified recombinant Medicago CCR1 expressed in E. coli; details: for CCR1 activity with substrate: qualitative, FIG. 5A,C
Description: as §1
All enzyme purification steps were carried out at 4° C. […]
as §3, with “μl.” for “μl. The reaction was carried out at 30° C. for 5 min and then terminated with the addition of 70 μL 24% trichloroacetic acid. The reaction mixture was extracted with ethyl acetate (0.6 ml×3) and the combined organic phases dried under a stream of N2.”

[1] = substrate: CC(C)(COP(=O)(O)OP(=O)(O)OC[C@H]1O[C@@H](n2cnc3c(N)ncnc32)[C@H](O)[C@@H]1OP(=O)(O)O)[C@@H](O)C(=O)NCCC(=O)NCCSC(=O)/C=C/c1ccc(O)c(O)c1; assay: as above; details: other: CCR1; compound as substrate; mean of three replicate sets of assays
Description: as §1, §2
(§4) For CCR enzyme activity assays purified CCR protein (2.5 μg) was mixed with assay buffer (100 mM phosphate pH 6.25, 10 mM 2-mercaptoethanol, 0.2 mM NADPH and cinnamoyl CoA substrates at the indicated concentration) in a final volume of 500 μl. The reaction was carried out at 30° C. for 5 min and then terminated with the addition of 70 μL 24% trichloroacetic acid. The reaction mixture was extracted with ethyl acetate (0.6 ml×3) and the combined organic phases dried under a stream of N2. The pellet was re-suspended in 50 μL methanol and 25 μL was subjected to HPLC analysis out on a Beckman System Gold HPLC system consisting of a programmable solvent module 126, a System Gold 508 autosampler and a System Gold 168 diode array detector. A Waters Spherisorb ODS-2 5 μm reverse phase column (5 μm particle, 250×4.6 mm) was used. Compounds were identified by comparing their UV spectra and retention times with authentic standards of hydroxycinnamoyl aldehydes, and quantified by means of standard curves with correction for recovery of internal standards. Protein concentrations were determined using Bradford reagent (Bio-Rad). For kinetic analysis at various substrate concentrations, enzyme velocity curves were analyzed using Sigmaplot 10 software (Systat Software Inc.).

[2] = substrate: CC(C)(COP(=O)(O)OP(=O)(O)OC[C@H]1O[C@@H](n2cnc3c(N)ncnc32)[C@H](O)[C@@H]1OP(=O)(O)O)[C@@H](O)C(=O)NCCC(=O)NCCSC(=O)/C=C/c1ccc(O)cc1; assay: as above; details: other: CCR1; compound as substrate; mean of three replicate sets of assays
Description: as §1, §2, §4

[3] = substrate: COc1cc(/C=C/C(=O)SCCNC(=O)CCNC(=O)[C@H](O)C(C)(C)COP(=O)(O)OP(=O)(O)OC[C@H]2O[C@@H](n3cnc4c(N)ncnc43)[C@H](O)[C@@H]2OP(=O)(O)O)ccc1O; assay: as above; details: other: CCR1; compound as substrate; mean of three replicate sets of assays
Description: as §1, §2, §4

[4] = substrate: COc1cc(/C=C/C(=O)SCCNC(=O)CCNC(=O)[C@H](O)C(C)(C)COP(=O)(O)OP(=O)(O)OC[C@H]2O[C@@H](n3cnc4c(N)ncnc43)[C@H](O)[C@@H]2OP(=O)(O)O)cc(OC)c1O; assay: as above; details: other: CCR1; compound as substrate; mean of three replicate sets of assays
Description: as §1, §2, §4

[5] = substrate: CC(C)(COP(=O)(O)OP(=O)(O)OC[C@H]1O[C@@H](n2cnc3c(N)ncnc32)[C@H](O)[C@@H]1OP(=O)(O)O)[C@@H](O)C(=O)NCCC(=O)NCCSC(=O)/C=C/c1ccc(O)c(O)c1; assay: CCR enzyme activity assay with purified recombinant Medicago CCR2 expressed in E. coli; details: other: CCR2; compound as substrate; S0.5 given in place of Km for coumaroyl and caffeoyl CoAs (sigmoidal velocity curves)
Description: as §1, §2, §4

[6] = substrate: CC(C)(COP(=O)(O)OP(=O)(O)OC[C@H]1O[C@@H](n2cnc3c(N)ncnc32)[C@H](O)[C@@H]1OP(=O)(O)O)[C@@H](O)C(=O)NCCC(=O)NCCSC(=O)/C=C/c1ccc(O)cc1; assay: as above; details: other: CCR2; compound as substrate; S0.5 given in place of Km for coumaroyl and caffeoyl CoAs (sigmoidal velocity curves)
Description: as §1, §2, §4

[7] = substrate: COc1cc(/C=C/C(=O)SCCNC(=O)CCNC(=O)[C@H](O)C(C)(C)COP(=O)(O)OP(=O)(O)OC[C@H]2O[C@@H](n3cnc4c(N)ncnc43)[C@H](O)[C@@H]2OP(=O)(O)O)ccc1O; assay: as above; details: other: CCR2; compound as substrate; S0.5 given in place of Km for coumaroyl and caffeoyl CoAs (sigmoidal velocity curves)
Description: as §1, §2, §4

[8] = substrate: COc1cc(/C=C/C(=O)SCCNC(=O)CCNC(=O)[C@H](O)C(C)(C)COP(=O)(O)OP(=O)(O)OC[C@H]2O[C@@H](n3cnc4c(N)ncnc43)[C@H](O)[C@@H]2OP(=O)(O)O)cc(OC)c1O; assay: as above; details: other: CCR2; compound as substrate; S0.5 given in place of Km for coumaroyl and caffeoyl CoAs (sigmoidal velocity curves)
Description: as §1, §2, §4

Molecule: COc1cc(/C=C/C(=O)SCCNC(=O)CCNC(=O)[C@H](O)C(C)(C)COP(=O)(O)OP(=O)(O)OC[C@H]2O[C@@H](n3cnc4c(N)ncnc43)[C@H](O)[C@@H]2OP(=O)(O)O)cc(OC)c1O [Sinapoyl CoA]
CCR2 activity relative to CCR1 (Medicago CCR2; at 20 μM substrate): almost twice as active
CCR2 activity (Medicago CCR2; at 50 μM substrate): virtually no activity
CCR2 activity at higher substrate concentrations (Medicago CCR2): strongly inhibited

B1: Medicago CCR1 (Medicago truncatula) (protein)
chain: MPAATAAAAAESSSVSGETICVTGAGGFIASWMVKLLLEKGYTVRGTLRNPDDPKNGHLKKLEGAKERLTLVKVDLLDLNSVKEAVNGCHGVFHTASPVTDNPEEMVEPAVNGAKNVIIAGAEAKVRRVVFTSSIGAVYMDPNRSVDVEVDESCWSDLEFCKKTKNWYCYGKAVAEAAAWDVAKEKGVDLVVVNPVLVLGPLLQPTINASTIHILKYLTGSAKTYANATQAYVHVRDVALAHILVYEKPSASGRYLCAETSLHRGELVEILAKYFPEYPIPTKCSDEKNPRVKPHIFSNKKLKDLGLEFTPVSECLYETVKSLQDQGHLSIPNKEDSLAVKS
K0.5 [1]: 161 ± 6.8 µM
Vmax [1]: 0.085 ± 0.0 µmol/min
kcat [1]: 0.0517 ± 0.0012 s⁻¹
kcat/Km [1]: 317 ± 0 M⁻¹ s⁻¹
K0.5 [2]: 56.8 ± 4.7 µM
Vmax [2]: 0.25 ± 0.01 µmol/min
kcat [2]: 0.15 ± 0.00167 s⁻¹
kcat/Km [2]: 2670 ± 1700 M⁻¹ s⁻¹
K0.5 [3]: 54.5 ± 3.2 µM
Vmax [3]: 1.64 ± 0.11 µmol/min
kcat [3]: 1 ± 0.0342 s⁻¹
kcat/Km [3]: 19000 ± 1300 M⁻¹ s⁻¹
K0.5 [4]: 7.2 ± 0.4 µM
Vmax [4]: 0.15 ± 0.01 µmol/min
kcat [4]: 0.0917 ± 0.00233 s⁻¹
kcat/Km [4]: 11300 ± 830 M⁻¹ s⁻¹

B2: Medicago CCR2 (Medicago truncatula) (protein)
chain: MPAYDNTSSVSGGDQTVCVTGAGGFIASWLVKLLLERGYTVRGTVRNPEDPKNGHLKELEGARERLTLHKVDLLDLQSIQSVVHGCHGVFHTASPVTDNPDEMLEPAVNGTKNVIIASAEAKVRRVVFTSSIGTVYMDPNTSRDVVVDESYWSDLEHCKNTKNWYCYGKTVAEQSAWDIAKENQVDLVVVNPVVVLGPLLQPTINASTIHILKYLNGAAKTYVNATQSYVHVKDVALAHLLVYETNSASGRYICCETALHRGEVVEILAKYFPEYPLPTKCSDEKNPRVKPYKFSNQKLKDLGLEFTPVKQCLYDTVRSLQEKGHLPIPPMQEDSA
K0.5 [5]: 23.4 ± 0.80 µM
Vmax [5]: 0.35 ± 0.01 µmol/min
kcat [5]: 0.15 ± 0.005 s⁻¹
kcat/Km [5]: 8170 ± 330 M⁻¹ s⁻¹
K0.5 [6]: 12.4 ± 1.0 µM
Vmax [6]: 0.44 ± 0.01 µmol/min
kcat [6]: 0.29 ± 0.0067 s⁻¹
kcat/Km [6]: 15000 ± 500 M⁻¹ s⁻¹
K0.5 [7]: 44.5 ± 4.5 µM
Vmax [7]: 0.48 ± 0.05 µmol/min
kcat [7]: 0.302 ± 0.0333 s⁻¹
kcat/Km [7]: 6670 ± 830 M⁻¹ s⁻¹
K0.5 [8]: 32.7 ± 3.6 µM
Vmax [8]: 0.32 ± 0.02 µmol/min
kcat [8]: 0.2 ± 0.0183 s⁻¹
kcat/Km [8]: 6170 ± 830 M⁻¹ s⁻¹

The next lines start with the values.

CCR2 activity at higher substrate concentrations (Medicago CCR2): strongly inhibited
CCR1 activity with substrate (Medicago CCR1): most active
Molecule: COc1cc(/C=C/C(=O)SCCNC(=O)CCNC(=O)[C@H](O)C(C)(C)COP(=O)(O)OP(=O)(O)OC[C@H]2O[C@@H](n3cnc4c(N)ncnc43)[C@H](O)[C@@H]2OP(=O)(O)O)ccc1O [Feruloyl CoA]

CCR1 activity relative to CCR2 activity (Medicago CCR1; at 50 μM substrate (FIG. 5A)): around 7%
CCR1 activity with substrate (Medicago CCR1): very low activity
Molecule: CC(C)(COP(=O)(O)OP(=O)(O)OC[C@H]1O[C@@H](n2cnc3c(N)ncnc32)[C@H](O)[C@@H]1OP(=O)(O)O)[C@@H](O)C(=O)NCCC(=O)NCCSC(=O)/C=C/c1ccc(O)c(O)c1 [Caffeoyl CoA]
